Source: patent publication US7098012
Read-outs that look alike come from different tables or passages of the source.

Legend:
[1] = tested on: DNA demethylase (DNA dMTase) purified from A549 nuclear extract (Homo sapiens); assay: inhibition; conditions: 5mC at CpG; oligonucleotide sequence only as image; preparation of enzyme not stated
[2] = tested on: DNA demethylase (DNA dMTase) purified from A549 nuclear extract (Homo sapiens); conditions: Km, 37 C, buffer L

“double stranded CmG oligonucleotide inhibitor” was tested, and the Ki [1] was 50 nM.

For fully methylated poly[mdCpdG]n, the activity ([2]; 5mC at all C of CpG, Vmax 340 pmol/h) was 2.5 nM.

hemimethylated [dCpdG]n*[mdCpdG]n was tested, and the activity ([2]; 5mC on one strand, Vmax 402 pmol/h) was 6 nM.

Work on “SssI-methylated pBluescript SK(+) plasmid” yielded an activity ([2]; 5mC at all CpG, Vmax 40.42 pmol/h) of 3.3 nM.
